Reference: article PMC10837153, “A structural vista of phosducin-like PhLP2A-chaperonin TRiC cooperation during the ATP-driven folding cycle” (Nature Communications, 2024)
Blank lines part the entries; values can stand above or below the molecule they belong to.

Legend:
[1] = biological target: human TRiC (TCP-1 ring complex), his-tagged, CCT1 tagged with GFP (human) (UniProt P17987); experiment: cryo-EM structure; TRiC (2 mg/ml) sequentially incubated with PFD and PhLP2A in 1:2:~1, each 20 min at RT, with 1 mM AMP-PNP; 3D-focused classification
[2] = biological target: human TRiC (TCP-1 ring complex), his-tagged, CCT1 tagged with GFP (human) (UniProt P17987); experiment: cryo-EM structure; open TRiC (2 mg/ml) with each truncated PhLP2A mutant (TXD, NTD-TXD, TXD-CTD) in 1:2 molar ratio, 20 min at RT
[3] = biological target: human TRiC (TCP-1 ring complex), his-tagged, CCT1 tagged with GFP (human) (UniProt P17987); experiment: cryo-EM structure; closed TRiC: TRiC (0.8 mg/ml) with each truncated PhLP2A mutant (TXD, NTD-TXD, TXD-CTD) 1:2 for 20 min, then 1 mM ATP, 6 mM NaF, 10 mM MgCl2, 50 mM KCl, 1 h at RT
human TRiC subunit CCT4 = biological target: T1, human TRiC subunit CCT4 (human, UniProt P50991 1-539); experiment: cryo-EM structure; open TRiC (2 mg/ml) with each truncated PhLP2A mutant (TXD, NTD-TXD, TXD-CTD) in 1:2 molar ratio, 20 min at RT; settings: both partners purified
T1 construct: TRiC subunit CCT4, human; Subunit of m2, seen only within the TRiC complex; source: High Five insect cells, purified as a subunit of TRiC
T1 sequence: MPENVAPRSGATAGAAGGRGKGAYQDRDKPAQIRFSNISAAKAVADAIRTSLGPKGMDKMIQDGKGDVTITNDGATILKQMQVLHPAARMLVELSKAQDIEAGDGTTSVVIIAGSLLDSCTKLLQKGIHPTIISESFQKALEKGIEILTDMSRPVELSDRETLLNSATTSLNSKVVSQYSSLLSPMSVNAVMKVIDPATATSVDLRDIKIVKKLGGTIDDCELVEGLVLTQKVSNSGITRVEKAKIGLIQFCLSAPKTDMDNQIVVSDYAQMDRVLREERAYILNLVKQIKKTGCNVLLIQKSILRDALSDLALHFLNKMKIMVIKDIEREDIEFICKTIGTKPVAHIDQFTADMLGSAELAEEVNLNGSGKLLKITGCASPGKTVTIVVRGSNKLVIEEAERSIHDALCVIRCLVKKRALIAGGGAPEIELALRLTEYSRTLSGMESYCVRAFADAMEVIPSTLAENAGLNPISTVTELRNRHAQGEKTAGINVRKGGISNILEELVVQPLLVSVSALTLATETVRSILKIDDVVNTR

human TRiC subunit CCT3 = biological target: T2, human TRiC subunit CCT3 (human, UniProt P49368 1-545); experiment: as above; settings: both partners purified
T2 construct: TRiC subunit CCT3, human; Subunit of m2, seen only within the TRiC complex; source: High Five insect cells, purified as a subunit of TRiC
T2 sequence: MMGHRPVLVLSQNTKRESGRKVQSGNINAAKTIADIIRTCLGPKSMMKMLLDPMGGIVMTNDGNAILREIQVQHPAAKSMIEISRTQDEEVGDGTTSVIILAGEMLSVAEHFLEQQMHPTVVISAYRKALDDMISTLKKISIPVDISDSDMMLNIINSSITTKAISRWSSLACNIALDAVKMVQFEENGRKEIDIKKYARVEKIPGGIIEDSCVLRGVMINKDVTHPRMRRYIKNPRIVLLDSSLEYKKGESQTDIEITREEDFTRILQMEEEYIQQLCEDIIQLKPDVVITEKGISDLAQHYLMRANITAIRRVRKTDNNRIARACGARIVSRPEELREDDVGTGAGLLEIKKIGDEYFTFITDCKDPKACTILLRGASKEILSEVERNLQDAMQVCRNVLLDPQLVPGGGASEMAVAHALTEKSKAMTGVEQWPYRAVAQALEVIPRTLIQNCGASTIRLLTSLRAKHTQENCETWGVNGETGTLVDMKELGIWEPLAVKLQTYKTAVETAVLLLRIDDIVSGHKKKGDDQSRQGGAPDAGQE

[4] = biological target: human TRiC (TCP-1 ring complex), his-tagged, CCT1 tagged with GFP (human) (UniProt P17987); experiment: native gel or EMSA; competition: unlabeled PhLP2A (0.01-10 μM) added to GFP-TRiC (0.25 μM) pre-incubated with AF-647 labeled PFD (1 μM); Native PAGE 4-16%, in-gel fluorescence
[5] = biological target: human TRiC (TCP-1 ring complex), his-tagged, CCT1 tagged with GFP (human) (UniProt P17987); experiment: native gel or EMSA; native PAGE mobility shift; 0.25 μM open TRiC, PhLP2A 0.01-10 μM, ATPase buffer (30 mM Tris pH 7.4, 120 mM KCl, 5 mM MgCl2, 1 mM DTT), about 30 min at room temperature; apparent Kd; three repetitions
[6] = biological target: human TRiC (TCP-1 ring complex), his-tagged, CCT1 tagged with GFP (human) (UniProt P17987); experiment: cryo-EM structure; closed TRiC: TRiC (0.8 mg/ml) with PhLP2A 1:4 for 30 min, then 1 mM ATP, 1 mM Al3(NO3)3, 6 mM NaF, 10 mM MgCl2, 50 mM KCl, 1 h at RT

percent of TRiC particles with PFD bound (3D classification) [1]: 25%
Molecule: human Prefoldin (from UniProt O15212 1-129) (complex)

percent of TRiC particles with NTD-TXD density in the chamber [2]: 19.8% | percent of closed TRiC particles with NTD-TXD density in the chamber [3]: 8.25% | binding result (human TRiC subunit CCT4): binds | binding result (human TRiC subunit CCT3): binds
B1: PhLP2A NTD-TXD (aa 1–211), CTD truncation (domain or fragment, human, UniProt Q9H2J4 1-211, looked up)
chain: MQDPNADTEWNDILRKKGILPPKESLKELEEEAEEEQRILQQSVVKTYEDMTLEELEDHEDEFNEEDERAIEMYRRRRLAEWKATKLKNKFGEVLEISGKDYVQEVTKAGEGLWVILHLYKQGIPLCALINQHLSGLARKFPDVKFIKAISTTCIPNYPDRNLPTIFVYLEGDIKAQFIGPLVFGGMNLTRDELEWKLSESGAIMTDLEEN
notes: PhLP2A, human, NTD and TXD, aa 1-211; also called N + TXT fragment; source: E. coli BL21 Rosetta2 pLysS, purified (nickel resin, SDX200); not shown: His6 (encoded by the 3' primer), C-terminal, kept

binding result (human TRiC subunit CCT3): binds
B2: PhLP2A TXD-CTD (aa 85–239), NTD truncation (domain or fragment, human, UniProt Q9H2J4 85-239, looked up)
chain: TKLKNKFGEVLEISGKDYVQEVTKAGEGLWVILHLYKQGIPLCALINQHLSGLARKFPDVKFIKAISTTCIPNYPDRNLPTIFVYLEGDIKAQFIGPLVFGGMNLTRDELEWKLSESGAIMTDLEENPKKPIEDVLLSSVRRSVLMKRDSDSEGD
notes: PhLP2A, human, TXD and CTD, aa 85-239; the 5' primer translates to M-KLKNKFG; also called TXT-C term; source: E. coli BL21 Rosetta2 pLysS, purified (nickel resin, SDX200); not shown: His6 (encoded by the 3' primer), C-terminal, kept

percent of TRiC-bound PFD displaced [4]: < 70% | percent of TRiC particles with PhLP2A bound (3D classification) [1]: 22.9% | Kd [5]: 170 nM | percent of closed TRiC particles with PhLP2A in both chambers [6]: 9.5% | percent of closed TRiC particles with PhLP2A in one chamber [6]: 14%
B3: human PhLP2A (phosducin-like protein 2A), full length (natural protein)
chain: MQDPNADTEWNDILRKKGILPPKESLKELEEEAEEEQRILQQSVVKTYEDMTLEELEDHEDEFNEEDERAIEMYRRRRLAEWKATKLKNKFGEVLEISGKDYVQEVTKAGEGLWVILHLYKQGIPLCALINQHLSGLARKFPDVKFIKAISTTCIPNYPDRNLPTIFVYLEGDIKAQFIGPLVFGGMNLTRDELEWKLSESGAIMTDLEENPKKPIEDVLLSSVRRSVLMKRDSDSEGD
modifications: AF-568 (Alexa568) label, site not stated, only in the native PAGE mobility shift and competition assays
